Experimental data from patent US20220119502A1 (ANN AND ROBERT H LURIE CHILDREN S HOSPITAL OF CHICAGO, published 2022).

Tests used:
[1] = biological target: T1, bovine serum albumin (Fraction V, Fisher BP1600) (bovine, UniProt P02769 25-607); assay: polyreactivity ELISA
T1 construct: also called BSA

[2] = biological target: KD peptide (NS4A peptide 2), BSA conjugated; assay: ELISA
[3] = biological target: multiple related peptides of hepacivirus C NS4A (animal virus peptide array); assay: animal virus peptide array, 2.5 ug/ml
[4] = biological target: integral membrane protein 2B (ITM2B) (human, UniProt Q9Y287 1-266); assay: HuProt v4.0 human proteome array, 1 ug/ml
Chain of integral membrane protein 2B (ITM2B) (Q9Y287 whole entry): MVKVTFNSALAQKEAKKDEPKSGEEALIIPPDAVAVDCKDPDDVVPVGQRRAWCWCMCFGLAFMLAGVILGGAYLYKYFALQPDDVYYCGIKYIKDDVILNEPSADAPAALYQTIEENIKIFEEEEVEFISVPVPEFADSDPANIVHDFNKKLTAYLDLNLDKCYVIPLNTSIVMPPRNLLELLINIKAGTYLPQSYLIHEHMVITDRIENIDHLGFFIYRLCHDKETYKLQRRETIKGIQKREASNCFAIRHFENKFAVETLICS

T1 sequence (P02769 25-607 limits assumed): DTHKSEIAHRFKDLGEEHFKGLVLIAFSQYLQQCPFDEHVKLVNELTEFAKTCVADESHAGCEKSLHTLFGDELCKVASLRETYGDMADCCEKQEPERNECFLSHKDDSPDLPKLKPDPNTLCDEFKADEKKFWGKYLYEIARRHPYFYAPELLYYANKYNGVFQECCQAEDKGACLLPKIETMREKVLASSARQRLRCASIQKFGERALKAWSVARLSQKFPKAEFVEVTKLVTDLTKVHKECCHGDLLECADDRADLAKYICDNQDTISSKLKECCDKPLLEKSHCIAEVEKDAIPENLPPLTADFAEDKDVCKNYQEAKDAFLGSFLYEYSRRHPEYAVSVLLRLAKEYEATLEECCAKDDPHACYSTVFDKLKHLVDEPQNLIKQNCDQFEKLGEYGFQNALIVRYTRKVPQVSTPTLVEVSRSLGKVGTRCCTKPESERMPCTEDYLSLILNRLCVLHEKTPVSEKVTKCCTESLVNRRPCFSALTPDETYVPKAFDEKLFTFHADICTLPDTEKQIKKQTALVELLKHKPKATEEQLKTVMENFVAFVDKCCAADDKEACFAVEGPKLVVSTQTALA

Binder	binding result [1]	also measured
KD6-1A10 (antibody, V domains shown) VH: VQLVESGGGVVQPGRSLRLSCAASGFSFSNYFMHWVRHVPGKGLEWLATIWYDGSDKYYVDSVKGRFTISRDNSKNTLYLQMGSLRAEDTAMYYCAKGRQRGYYYDMGGYYVFDSWGQGTLVTVSS VL: QSVLTQPPSASGTPGQGVTISCSGSRSNIGSNTVNWYRQFPGTAPKLLIYKNNQRPSGVPDRFSGSKPGTSAYLAITGLQSDDQADYYCAAWDDSLKGVVFGGGTKLTVL	no binding (tested: 10, 1, and 0.1 ug/ml)	–
KD9-1B5 (antibody, V domains shown) VH: QVQLQESGPGLVKPSETLSLTCTVSGGSINSYYWSWIRQPPGKGLEWIGYIYYSGSTNYNPSLKSRVTISVDTSKNQFSLRLSSVTAADTAVYYCARHPTAGTSYGMDVWGQGTTVTV VL: QSALTQPASESGSPGQSITISCTGTTSDVGSYNLVSWYQQHPGKAPKLMIYEGTKRPSGVSNRFSGSKSGNTASLTISGLQPEDEADYYCCSYAGTTTYVFGTGTKVTVL	–	OD450 (KD peptide minus scrambled peptide) [2]: < 0.04 OD
KD6-2B2 (antibody, V domains shown, also called rabbit KD6-2B2; KD36-2B32) VH: EVQLVESGGGVAQPGTSLRLSCEASGFTFRDYAMRWVRQAPGKGLEWVAFIWNDGSKKYYTDSVRGRFTISRDNSKNMLYLQMDSLRAEDTALYYCARKMSEDDAFDLWGQGTMVTV VL: DIQMTQSPSTLSASAGDRVTITCRASQSVSKYLAWYQQKPGKAPRLLIYKASSLQSGVPSRFSGSGSGTEFTLTISSLQPDDFATYYCQHYNTYPSWTFGQGTKVEIK	no binding (tested: 10, 1, and 0.1 ug/ml)	–
KD4-2H4 (rabbit version) (antibody, V domains shown, also called Rabbit KD4-2H4) VH: EVQLVESGGGLVQPGGSLRLSCAASGFTFSSYWMYWVRQAPGKGLVWVSRINSDGSTTNYADSVKGRFTISRDNAKNTLYLQMNSLRAEDTAVYFCARYAHLGIGWYFDLWGRGTLVTVSS VL: QSALTQPRSVSGSPGQSVTISCTGTSSDVGGYNYVSWYQQHPGKAPKLMIYDVSKRPSGVPDRFSGSKSGNTASLTISGLQAEDEADYYCCSYAGSYTLLFGGGTKLTVL	no binding (tested: 10, 1, and 0.1 ug/ml)	spot intensity (fluorescence units) (fluorescence units) [3]: > 200
KD4-2H4 (human version) (antibody, V domains shown, also called human KD4-2H4) VH: EVQLVESGGGLVQPGGSLRLSCAASGFTFSSYWMYWVRQAPGKGLVWVSRINSDGSTTNYADSVKGRFTISRDNAKNTLYLQMNSLRAEDTAVYFCARYAHLGIGWYFDLWGRGTLVTVSS VL: QSALTQPRSVSGSPGQSVTISCTGTSSDVGGYNYVSWYQQHPGKAPKLMIYDVSKRPSGVPDRFSGSKSGNTASLTISGLQAEDEADYYCCSYAGSYTLLFGGGTKLTVL	–	binding result [4]: binds
KD8-1B10 (antibody, V domains shown) VH: EVQLVESGGGLVQPGGSLRLSCAASGFTFSDHYMDWVRQVPRKGLEWVGRARNKANSYTTEYAASVKGRFTISRDDSKNSLYLQMNSLKSEDTAVYYCARFLLIADAFDIWGQGTMVTV VL: DIQMTQSPSSLSASLGDRVTITCRASQGIRHDLGWYQQKPGKAPKLLIYGASTLQTGVPSRFSGSGSGTDFTLTISSLQPEDFATYYCLQKYNYPLTFGGGTKVEIK	no binding (tested: 10, 1, and 0.1 ug/ml)	–
KD8-1D4 (antibody, V domains shown) VH: EVQLVESGGGLVQPGGSLRLSCAASGFTFSDYYMDWVRQAPGKGLEWVGRTRNKANSYTTEYAASVKGRFTISRDDSKNSLYLQMNSLKTEDTAVYYCARFLLVADAFDIWGQGTMVTV VL: DIQMTQSPSSLSASVGDRVTITCRASQGIRNDLGWYQQKPGKAPKLLIYGASSLQSGVPSRFSGSGSGTDFTLTISSLQPEDIATYYCLQEYTYPLTFGGGTKVEIK	no binding (tested: 10, 1, and 0.1 ug/ml)	–
